What was measured:
[1] = biological target: T1, CHO cells expressing full-length NgR (Homo sapiens, UniProt Q9BZR6); test: Cell surface binding assay of AP-p75
T1 construct: expressed in transfected cells; host or cells: CHO cells
T1 sequence (Q9BZR6 27-473): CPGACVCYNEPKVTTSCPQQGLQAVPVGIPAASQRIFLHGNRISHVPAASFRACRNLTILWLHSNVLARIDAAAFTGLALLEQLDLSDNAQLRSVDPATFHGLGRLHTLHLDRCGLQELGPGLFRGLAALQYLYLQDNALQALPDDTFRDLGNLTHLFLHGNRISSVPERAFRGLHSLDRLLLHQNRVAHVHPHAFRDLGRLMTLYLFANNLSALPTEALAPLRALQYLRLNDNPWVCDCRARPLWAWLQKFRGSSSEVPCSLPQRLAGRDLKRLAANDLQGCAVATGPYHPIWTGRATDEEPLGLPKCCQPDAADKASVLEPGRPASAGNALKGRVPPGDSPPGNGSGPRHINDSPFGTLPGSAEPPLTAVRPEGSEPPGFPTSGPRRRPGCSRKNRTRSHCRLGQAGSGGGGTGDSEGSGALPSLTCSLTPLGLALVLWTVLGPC
From the text: When we overexpress HA-tagged P75 and FLAG-tagged NgR into CHO cells, we find that p75 can be co-immunoprecipitated with NgR, but not with a control transmembrane protein Plexin A3. We also utilize a cell surface binding assay to better visualize the NgR/P75 interaction.
Upon expression in cerebellar granule neurons (CGNs), this truncated NgR, but not full-length NgR, blocks the inhibitory responses elicited by immobilized inhibitors.
Exemplary experimental protocols: Binding experiments: Sequence encoding the extracellular domain of rat p75 was subcloned into the expression vector AP-5 to express an AP-p75 fusion protein tagged with both a polyhistidine and a myc epitope. The resultant plasmid DNA was transfected into COS-7 cells and the secreted protein purified using nickel-Agarose resins (Qiagen). Cell surface binding with AP-p75 and other AP proteins were performed as described previously. For visualization of bound proteins, NBT and BCIP were used as AP substrates.

DRG neurons = test: Neurite outgrowth assay, wild type versus P75 mutant neurons; type: cell-based, mice
From the text: We use a neurite outgrowth assay to compare the responses of neurons from wild type mice and those carrying a mutation in the P75 gene to individual inhibitors (Lee et al., Cell 1992 May 29; 69(5):737-49). Neurite outgrowth of DRG neurons from P75 (−/−) was not inhibited by MAG-Fc.

B1: AP-p75: alkaline phosphatase (AP) fusion protein containing the extracellular domain of P75 (protein)
chain: KETCSTGLYTHSGECCKACNLGEGVAQPCGANQTVCEPCLDNVTFSDVVSATEPCKPCTECLGLQSMSAPCVEADDAVCRCAYGYYQDEETGHCEACSVCEVGSGLVFSCQDKQNTVCEECPEGTYSDEANHVDPCLPCTVCEDTERQLRECTPWADAECEEIPGRWIPRSTPPEGSDSTAPSTQEPEVPPEQDLVPSTVADMVTTVMGSSQPVVTRGTTDNLI
modifications: left off: large carriers; small tags and cut ends
[1]
  binding of AP-p75 to NgR-expressing cells: able to bind CHO cells expressing full-length NgR specifically

B2: OM-his: myelin inhibitor protein; his-tagged OMgp (protein, UniProt P23515 25-417, looked up)
Oligodendrocyte-myelin …: ICPLQCICTERHRHVDCSGRNLSTLPSGLQENIIHLNLSYNHFTDLHNQLTQYTNLRTLDISNNRLESLPAHLPRSLWNMSAANNNIKLLDKSDTAYQWNLKYLDVSKNMLEKVVLIKNTLRSLEVLNLSSNKLWTVPTNMPSKLHIVDLSNNSLTQILPGTLINLTNLTHLYLHNNKFTFIPDQSFDQLFQLQEITLYNNRWSCDHKQNITYLLKWMMETKAHVIGTPCSTQISSLKEHNMYPTPSGFTSSLFTVSGMQTVDTINSLSVVTQPKVTKIPKQYRTKETTFGATLSKDTTFTSTDKAFVPYPEDTSTETINSHEAAAATLTIHLQDGMVTNTSLTSSTKSSPTPMTLSITSGMPNNFSEMPQQSTTLNLWREETTTNVKTPLPS
modifications: His tag
notes: his-tagged OMgp
DRG neurons; neurons from P75 (-/-) mice
  neurite outgrowth inhibition: neither of these proteins restrict neurite outgrowth
DRG neurons; wild type neurons
  neurite outgrowth inhibition: efficiently inhibited
